# Test results reported in the nanobody polyreactivity screen of Harvey et al. (2022).
# Experiment: yeast display, Sf9 membrane polyspecificity reagent, FACS + sequencing; frameworks hold sequencing errors
# Procedure, shortened: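 Nanobodies came from a synthetic yeast display library in Saccharomyces cerevisiae BJ5465, induced with galactose for 36–48 hours and stained for 1 hour at 4 °C with 10% biotinylated, detergent-solubilized Sf9 membrane reagent. Cells were enriched on streptavidin microbeads and then FACS-sorted, with low and high (top ~1%) gates set on anti-HA fluorescence for expression and streptavidin fluorescence for reagent binding. Each polyreactivity label reflects the gate a clone came from. Genes were amplified by colony PCR, sequenced by MiSeq 2 × 250 and filtered by CDR length.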
row,Sequence,polyreactivity (PSR sort gate)
1,QVQLVESGGGLVQAGGSLRLSCAASRSTFYLNAMGWYRQAPGKERELVAAISSGGRTYYADSVKGRFTISRDNAKNTVYLQMNSLKPVDTAVYYCNAVRYLRGAYNYWGQGTQVTVSS,high polyreactivity
2,QVQLVESGGGLVQAGGSLRLSCAASRSTFYYYAMGWYRQAPGKERELVATISWSGDSTYADSVKGRFTISRDNAKNTVYLQMNRLKPEDTAVYYCATSGDWWGFRYDYLGQGTQVTVSS,low polyreactivity
3,QVQLVESGGGLVQAGGSLRLSCAASVFTFGQYTMGWYRQAPGKERELVAAITGSGGNTYYADSVKGRFTISRDNAKNTVYLQMNSLKPEDTAVYYCAVQWTYDQYYDYDYWGQGTQVTVSS,low polyreactivity
4,QVQLVESGGGLVQAGGSLRLSCAASVFTFRGNAMGWYRQAPGKERELVAAITSSDDSTYYADSVKGRFTISRDNAKNTVYLQMNSLKPEDTAVYYCAAVANGYWTYEYWGQGTQVTVSS,low polyreactivity
5,QVQLVESGGGLVQAGGSLRLSCAASVFTIPPYAMGWYRRAPGKERELVARITWSGDRTYYADSVKGRFTISRDNAKNTFYLQINSLKPEDTAVYYCADDSAQYYEMDYWGQGTQVTVSS,high polyreactivity
6,QVQLVESGGGLVQAGGSLRLSCAASVIIYHYYAMGWYRPAPGKERELVAAIDSGGSTYYADSVKGRFTISRDNAKNTVYLQMNSLKPEDTADYYCNAGPSVTSGYDYDYWGHGTQVTVSS,low polyreactivity
7,QVQLVESGGGLVQAGGSLRLSCAASVIIYLDNAMVWYRQAPRKEMEMVADITSSGGSTYYADSVKGRFTISRDNAKNTVSLQMNSLKPEDTAVYYCAATRPSYNDAESDYWGQGTQVTVSS,low polyreactivity
8,QVQLVESGGGLVQAGGSLRLSCAASVITFSYNAMGWYRQAPGKERELVAAISSNSDSTYYADSVKGRFTISRDIAKNTVYLQMNSLKPVDTAVYYCAADTPDAPDYSGFYYWGQGTQVTVSS,low polyreactivity
9,QVQLVESGGGLVQAGGSLRLSCAASVLTFETYAMGWYRQAPGKERELVAAISFSGDSTYYADSVKGRFTISRDNAKNTVYLQMNSLKPEDTAVYYCAAEQYYAWYIVGPDYYYWGQGTQVTVSS,high polyreactivity
10,QVQLVESGGGLVQAGGSLRLSCAASVRIFYRYGMGLYRQAPGKERELVASITRGGSTYYADSVKGRFTISRDNAKNTVYLQMNSLKPEDTAVYYCATKSSAGYDYWGQGTQVTVSS,low polyreactivity
11,QVQLVESGGGLVQAGGSLRLSCAASVRIYPYYDRGWYRQAPGKDRELVASTNYADSVKGRFTISRDNAKNTVYLQMNSLKPEDTAVYYCNKRIYGWGGSRYDYWGQGTQVTVSS,low polyreactivity
12,QVQLVESGGGLVQAGGSLRLSCAASVRIYRPYAMGRYRQAPGKERELVAAISGSGGSTYYADSVKGRFTISRDNAKNTVYLQMNSLKPEDTAVYYCNAAPKWSDYFYPLEYWGQGTQVTVSS,low polyreactivity
13,QVQLVESGGGLVQAGGSLRLSCAASVRTFEPNAMGWYRQAPGKERELVAAISSSDGSTYYADSVKGRFTISRDNAKNTVYLQMNSLKPEDTAVYYCAADAGYLYDWPYNYYYWGQGTQVTVSS,low polyreactivity
14,QVQLVESGGGLVQAGGSLRLSCAASVRTFNFYASGLYRQATRKQRELVAAIRRGGSTNYADSVKGRFTISRDNAKNTVYLQMNSLIREDTAVYYCNKRVWYPYWTVDYWGQGTQVTVSS,low polyreactivity
15,QVQLVESGGGLVQAGGSLRLSCAASVRTFSYYAMGWYRQAPGKERELVASISGGGRTNYADSVKGRFTISRDNAKKTVYLQMNSLKPEDTAVYYCAARYQITRQYKRGYWGQGNQVTVSS,high polyreactivity
16,QVQLVESGGGLVQAGGSLRLSCAASVRTFTPYAMGWYRQAPGKEREFVAAISIVGRKKYADSVKGRFTISRDNAKNTVYLQMNSLKPEDTEVYYCNAQDSRDRKFYWGYTRGHWGLGTQVTVSS,low polyreactivity
17,QVQLVESGGGLVQAGGSLRLSCAASVSIFARYAMGWYRQAPGKERELVAAITSGTSTNYADSVKGRFTISRDNAKNSVYLQMNSLKPEDTAVYYCNARHTWHQTYDYCGQGTQVTVSS,low polyreactivity
